Source: article PMC9583936 (Biochemistry, 2022)
Read-outs that look alike come from different tables or passages of the source. *1 amine or outer side, *2 acyl side, *3 side chain or, on linkers, in order; H or OH if unused. Where no end group is shown, it is not given here. [ ]: non-standard residue; d: D form. Leu(4-F) = γ-19F-leucine (4-fluoro-leucine), CC(C)(F)C[C@H](N[*:1])C(=O)[*:2]; Phe(4-F) = N[C@@H](Cc1ccc(F)cc1)C(=O)O

Experiments:
[1] = biological target: the molecule itself; assay: 19F solid-state NMR CODEX
[2] = biological target: the molecule itself; assay: 19F solid-state NMR CODEX; remark: listed apart in the source

B1: γ-19F-Leu18 labeled ETM (transmembrane domain of the SARS-CoV-2 envelope protein, residues 8-38) (peptide)
peptide: Ac-ETGTLIVNSV[Leu(4-F)]LFLAFVVFLLVTLAILTALR-NH2
SMILES: CC[C@H](C)[C@H](NC(=O)[C@H](C)NC(=O)[C@H](CC(C)C)NC(=O)[C@@H](NC(=O)[C@@H](NC(=O)[C@H](CC(C)C)NC(=O)[C@H](CC(C)C)NC(=O)[C@H](Cc1ccccc1)NC(=O)[C@@H](NC(=O)[C@@H](NC(=O)[C@H](Cc1ccccc1)NC(=O)[C@H](C)NC(=O)[C@H](CC(C)C)NC(=O)[C@H](Cc1ccccc1)NC(=O)[C@H](CC(C)C)NC(=O)[C@H](CC(C)(C)F)NC(=O)[C@@H](NC(=O)[C@H](CO)NC(=O)[C@H](CC(N)=O)NC(=O)[C@@H](NC(=O)[C@@H](NC(=O)[C@H](CC(C)C)NC(=O)[C@@H](NC(=O)CNC(=O)[C@@H](NC(=O)[C@H](CCC(=O)O)NC(C)=O)[C@@H](C)O)[C@@H](C)O)[C@@H](C)CC)C(C)C)C(C)C)C(C)C)C(C)C)C(C)C)[C@@H](C)O)C(=O)N[C@@H](CC(C)C)C(=O)N[C@H](C(=O)N[C@@H](C)C(=O)N[C@@H](CC(C)C)C(=O)N[C@@H](CCCNC(=N)N)C(N)=O)[C@@H](C)O
[1]
  stoichiometry N: 5

B2: 4-19F-Phe23 labeled ETM (transmembrane domain of the SARS-CoV-2 envelope protein, residues 8-38) (peptide)
peptide: ETGTLIVNSVLLFLA[Phe(4-F)]VVFLLVTLAILTALR-NH2
modifications: N-terminus assumed
SMILES: CC[C@H](C)[C@H](NC(=O)[C@H](C)NC(=O)[C@H](CC(C)C)NC(=O)[C@@H](NC(=O)[C@@H](NC(=O)[C@H](CC(C)C)NC(=O)[C@H](CC(C)C)NC(=O)[C@H](Cc1ccccc1)NC(=O)[C@@H](NC(=O)[C@@H](NC(=O)[C@H](Cc1ccc(F)cc1)NC(=O)[C@H](C)NC(=O)[C@H](CC(C)C)NC(=O)[C@H](Cc1ccccc1)NC(=O)[C@H](CC(C)C)NC(=O)[C@H](CC(C)C)NC(=O)[C@@H](NC(=O)[C@H](CO)NC(=O)[C@H](CC(N)=O)NC(=O)[C@@H](NC(=O)[C@@H](NC(=O)[C@H](CC(C)C)NC(=O)[C@@H](NC(=O)CNC(=O)[C@@H](NC(=O)[C@@H](N)CCC(=O)O)[C@@H](C)O)[C@@H](C)O)[C@@H](C)CC)C(C)C)C(C)C)C(C)C)C(C)C)C(C)C)[C@@H](C)O)C(=O)N[C@@H](CC(C)C)C(=O)N[C@H](C(=O)N[C@@H](C)C(=O)N[C@@H](CC(C)C)C(=O)N[C@@H](CCCNC(=N)N)C(N)=O)[C@@H](C)O
[1]
  stoichiometry N: 5

## ETGTLIVNSVLL[Phe(4-F)]LAFVVFLLVTLAILTALR [4-19F-Phe20 labeled ETM (transmembrane domain of the SARS-CoV-2 envelope protein)]
[2]
  stoichiometry N: 5
